In PMC8241838:

Target: trimeric fusion protein PA-sfGFP-tLM511, O15230;P07942;P11047
Assay: flow cytometry on cells
Details: 0.5 mM Mn2+; for response (arbitrary units/cell): 30 nM sfGFP-tLM511, parent: est. 3.0, read off a plot

response (arbitrary units/cell) | ratio to parent | Substance
2.1 | 2.6 | human α6β1 integrin transiently expressed on Expi293F cells, wild type (from UniProt P05556) α6:E221A
1.4 | 4.8 | human α6β1 integrin transiently expressed on Expi293F cells, wild type (from UniProt P05556) α6:D205A
– | 10.7 | human α6β1 integrin transiently expressed on Expi293F cells, wild type (from UniProt P05556) α6:E219A
